Data as given in patent US20230043289A1.
Residue numbers refer to the chain shown, from its start.

B1: hu37D3-H9.v76 (antibody, V domains shown)
VH: EVQLVESGGGLVQPGGSLRLSCAASGLIFRSYGMSWVRQAPGKGLEWVATINSGGTRTYYPDSVKGRFTISRDNSKNTLYLQMNSLRAEDTAVYYCANSYSGAMDYWGQGTLVTVSS
VL: DDLLTQTPLSLPVTPGQPASISCRSSQSIVHSNGNTYLEWYLQKPGQSPQLLIYKVSNRFSGVPDRFSGSGSGTDFTLKISRVEAEDVGVYYCFQGTLVPWTFGQGTKVEIK
B2: hu37D3-H9.v83 (antibody, V domains shown)
VH: B1 VH with V5L
VL: B1 VL with T7S, P15L, L42Q, K44R, Q50R
B3: hu37D3-H9.v93 (antibody, V domains shown)
VH: B1 VH
VL: EDLLTQSPSSLSASVGDRVTITCRSSQSIVHSNGNTYLEWYQQKPGKSPKLLIYKVSNRFSGVPSRFSGSGSGTDFTLTISSLQPEDFATYYCFQGTLVPWTFGQGTKVEIK

biological target: Cynomolgus monkey Tau monomer (cynomolgus monkey); assay: SPR 37C, hIgG captured, cyno Tau monomer 0.1-33.3 nM
Sequence (P10636 other isoform, or with tags, fused parts or gaps): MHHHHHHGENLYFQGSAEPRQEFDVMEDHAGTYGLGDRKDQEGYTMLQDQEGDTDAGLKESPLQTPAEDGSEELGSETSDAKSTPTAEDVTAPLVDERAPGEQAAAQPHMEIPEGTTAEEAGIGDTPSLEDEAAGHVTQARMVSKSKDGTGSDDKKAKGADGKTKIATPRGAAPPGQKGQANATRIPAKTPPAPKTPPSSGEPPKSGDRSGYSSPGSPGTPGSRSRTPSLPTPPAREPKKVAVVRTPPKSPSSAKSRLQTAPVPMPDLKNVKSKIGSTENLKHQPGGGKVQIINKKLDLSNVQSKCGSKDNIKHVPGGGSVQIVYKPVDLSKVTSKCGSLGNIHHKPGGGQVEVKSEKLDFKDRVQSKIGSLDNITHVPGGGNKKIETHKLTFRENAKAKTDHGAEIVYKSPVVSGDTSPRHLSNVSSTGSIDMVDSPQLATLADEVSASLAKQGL

| Kd [nM] | koff [s⁻¹] | kon [M⁻¹ s⁻¹] | Binder |
| --- | --- | --- | --- |
| 0.1 | 0.00114 | 9.27e+06 | B1 |
| 0.1 | 0.00114 | 9.55e+06 | B2 |
| 0.1 | 0.00178 | 1.29e+07 | B3 |
